Measurements taken from US20230212294A1 (MINGHUI PHARMACEUTICAL SHANGHAI, published 2023).

T1: B7-H3 endogenously expressed on human tumor cell lines (human, UniProt Q5ZPR3 29-534)
T1 sequence (looked up): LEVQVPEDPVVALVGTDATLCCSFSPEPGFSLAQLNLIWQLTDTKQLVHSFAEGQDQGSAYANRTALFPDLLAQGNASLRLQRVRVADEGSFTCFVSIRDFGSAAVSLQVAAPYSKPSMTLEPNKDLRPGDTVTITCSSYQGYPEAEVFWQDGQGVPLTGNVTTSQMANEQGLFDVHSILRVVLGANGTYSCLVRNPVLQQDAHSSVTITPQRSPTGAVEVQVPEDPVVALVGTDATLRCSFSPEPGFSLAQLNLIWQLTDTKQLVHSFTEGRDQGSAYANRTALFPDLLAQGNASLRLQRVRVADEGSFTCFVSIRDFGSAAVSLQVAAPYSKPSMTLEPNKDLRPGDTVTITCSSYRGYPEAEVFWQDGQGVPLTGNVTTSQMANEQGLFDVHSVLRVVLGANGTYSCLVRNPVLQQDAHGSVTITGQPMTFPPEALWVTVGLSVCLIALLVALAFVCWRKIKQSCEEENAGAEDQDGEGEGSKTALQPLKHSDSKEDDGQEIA

T2: B7-H3 on CHOK cells overexpressing B7-H3
T2 sequence (Q5ZPR3 whole entry, species assumed, looked up): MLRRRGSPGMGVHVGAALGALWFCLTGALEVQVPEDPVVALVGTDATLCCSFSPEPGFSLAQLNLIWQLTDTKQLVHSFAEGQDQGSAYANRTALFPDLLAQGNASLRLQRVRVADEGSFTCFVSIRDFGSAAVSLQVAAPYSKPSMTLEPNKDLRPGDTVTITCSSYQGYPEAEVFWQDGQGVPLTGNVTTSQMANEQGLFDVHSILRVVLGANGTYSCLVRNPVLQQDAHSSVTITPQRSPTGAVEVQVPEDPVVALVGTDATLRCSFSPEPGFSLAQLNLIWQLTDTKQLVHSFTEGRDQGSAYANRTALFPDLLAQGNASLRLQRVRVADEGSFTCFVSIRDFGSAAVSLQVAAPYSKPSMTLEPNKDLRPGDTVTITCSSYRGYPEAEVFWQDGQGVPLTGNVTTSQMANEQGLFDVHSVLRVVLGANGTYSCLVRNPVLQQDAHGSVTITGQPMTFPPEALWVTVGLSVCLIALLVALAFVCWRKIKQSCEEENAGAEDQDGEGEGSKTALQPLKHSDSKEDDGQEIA

T3: monkey B7-H3-his (monkey)
T3 chain: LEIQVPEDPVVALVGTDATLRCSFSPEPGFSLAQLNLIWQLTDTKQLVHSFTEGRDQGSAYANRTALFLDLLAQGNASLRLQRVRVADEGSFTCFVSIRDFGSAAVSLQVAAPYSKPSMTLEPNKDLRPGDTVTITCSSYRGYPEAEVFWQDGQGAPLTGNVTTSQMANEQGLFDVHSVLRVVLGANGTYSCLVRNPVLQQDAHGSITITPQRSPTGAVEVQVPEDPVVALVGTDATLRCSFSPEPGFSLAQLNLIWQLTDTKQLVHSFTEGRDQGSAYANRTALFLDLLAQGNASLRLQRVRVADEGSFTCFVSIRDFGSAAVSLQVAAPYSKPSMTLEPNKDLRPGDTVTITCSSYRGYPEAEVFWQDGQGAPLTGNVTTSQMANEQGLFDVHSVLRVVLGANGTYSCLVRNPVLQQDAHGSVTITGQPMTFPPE

T4: mouse B7-H3-his (mouse, UniProt Q8VE98 29-244, limits assumed)
T4 construct: His-tagged recombinant protein coated on the ELISA plate; not shown: his tag
T4 sequence (looked up): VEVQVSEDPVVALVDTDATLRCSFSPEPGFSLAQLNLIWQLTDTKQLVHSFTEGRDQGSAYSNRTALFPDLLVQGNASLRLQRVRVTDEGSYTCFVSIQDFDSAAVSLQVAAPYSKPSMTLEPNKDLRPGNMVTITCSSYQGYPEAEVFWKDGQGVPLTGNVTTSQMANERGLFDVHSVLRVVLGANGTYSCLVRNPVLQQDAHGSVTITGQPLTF


Tests used:
[1] = biological target: T1, B7-H3 endogenously expressed on human …; experiment: cell-based or functional assay
[2] = biological target: T2, B7-H3 on CHOK cells overexpressing B7-H3; experiment: cell-based or functional assay
[3] = biological target: T1, B7-H3 endogenously expressed on human …; experiment: flow cytometry on NCI-H322 cells
Experimental: (§1) CHOK cells overexpressing B7-H3 or NCI-H322 cells endogenously expressing B7-H3 were added to a round-bottom 96-well plate at 100,000 cells per well, centrifuged to remove the supernatant, and then added with a gradient-diluted anti-B7-H3 antibody and incubated at 4 degrees for 1 h. After incubation, the cells were washed twice with FACS buffer (PBS containing 2% FBS), then added with fluorescent-labeled goat anti-human secondary antibody (Abcam, ab98596) and incubated for 0.5 h. After incubation, the cells were washed twice with FACS buffer, then resuspended with FACS buffer and detected with flow cytometry (Beckman, cytoFlex).

[4] = biological target: T2, B7-H3 on CHOK cells overexpressing B7-H3; experiment: flow cytometry on CHOK cells overexpressing B7-H3
Experimental: as §1

monkey B7-H3-his = biological target: T3, monkey B7-H3-his; experiment: ELISA, antigen coated at 2 µg/mL
Experimental: (§2) Human B7-H3-his, mouse B7-H3-his and monkey B7-H3-his were diluted to 2 μg/mL with PBS, and added to the ELISA plate at 30 μL per well. The ELISA plate was then incubated in a refrigerator at 4° C. for 16-20 hours. The next day, the ELISA plate was washed once with a lotion (PBS containing 0.05% Tween 20) and then blocked with 5% skim milk powder for 1 hour. After blocking, the ELISA plate was washed once, then added with gradient-diluted anti-B7-H3 antibodies, and incubated at room temperature for 1 h. After incubated, the ELISA plate was washed three times, then added with goat anti-human HRP-labeled secondary antibody, and incubated at room temperature for 1 h. After incubated, the ELISA plate was washed three times, then developed for 5-15 minutes by adding TMB, and finally terminated with 2M sulfuric acid. The data were recorded on the microplate reader.

mouse B7-H3-his [5] = biological target: T4, mouse B7-H3-his; experiment: ELISA, antigen coated at 2 µg/mL
Experimental: as §2

[6] = biological target: T1, B7-H3 endogenously expressed on human …; experiment: cell-based or functional assay; remark: listed apart in the source
[7] = biological target: T1, B7-H3 endogenously expressed on human …; experiment: cell-based or functional assay; remark: listed apart in the source
mouse B7-H3-his [8] = biological target: T4, mouse B7-H3-his; experiment: ELISA, mouse B7-H3-his coated at 2 µg/mL
Experimental: as §2

| Binder | IC50 of NCI-H322 endocytosis experiment (toxin-labeled secondary antibody, cell viability) [1] [µg/mL] | IC50 of CHO endocytosis experiment (toxin-labeled secondary antibody, cell viability) [2] [µg/mL] | EC50 [3] [µg/mL] | EC50 [4] [µg/mL] | EC50 (monkey B7-H3-his) [µg/mL] | EC50 (mouse B7-H3-his [5]) [µg/mL] | Inhibitory IC50 against proliferation of BxPC-3 cells, 5 days, CellTiter-Glo [6] [nM] | Inhibitory IC50 against proliferation of Calu-6 cells, 5 days, CellTiter-Glo [6] [nM] | Inhibitory IC50 against proliferation of BxPC-3 cells, 72 h, CellTiter-Glo [7] [nM] | Inhibitory IC50 against proliferation of NCI-H1975 cells, 72 h, CellTiter-Glo [7] [nM] | binding result (mouse B7-H3-his [8]) |
| --- | --- | --- | --- | --- | --- | --- | --- | --- | --- | --- | --- |
| IL-P5-C06 (antibody, V domains shown, Unhumanized murine variable regions from the murine immune phage library; full-length antibody) VH: QVQLQQSGPELVRPGVSVKISCKGSGYTFTDYAIHWAKQGHAKSLEWIGIINTYNGNSNYNQNFKGKATMTVDKSSSTAYMELTRLTSEDSAIYYCARNYGSSFNWYFDVWGQGTTLTVSS VL: DIVLTQSPTTMAASPGEKITITCSASSSISSNYLHWYQQKPGFSPKLLIYSTSNLASGVPARFSGSGSGTSYSLTISSVEAEDAATYYCQQYSGYPLTFGAGTKLELK | 0.0025 | 0.0209 | 0.0795 | 0.954 | 0.116 | 0.134 |  |  |  |  |  |
| IL-P7-C05-H4L3-MMAE (antibody, V domains shown, MMAE (Monomethyl auristatin E) coupled to the antibody; linker, site and drug load not stated) VH: EVQLVESGGGLVQPGGSLRLSCAASGFTFSSYAMSWVRQAPGKGLELVAAINSNGGSTYYADSVKGRFTISRDNAKNTLYLQMSSLRAEDTAVYYCTRNEEFRRGLAYWGQGTLVTVSS VL: DIQMTQSPSSLSASVGDRVTITCRASENIYSNLAWYQQKPGKAPKLLIYAASNLQSGVPSRFSGSGSGTDYTLTISSLQPEDFATYYCQHFWGTPPWTFGQGTKLEIK |  |  |  |  |  |  | 5.5 | 0.3 | 7.7 | 7.4 |  |
| IL-P7-C05-H4L3 (antibody, V domains shown, Humanized from IL-P7-C05; full-length antibody; also called ILP7C05huVH4 + ILP7C05huVL3) VH: EVQLVESGGGLVQPGGSLRLSCAASGFTFSSYAMSWVRQAPGKGLELVAAINSNGGSTYYADSVKGRFTISRDNAKNTLYLQMSSLRAEDTAVYYCTRNEEFRRGLAYWGQGTLVTVSS VL: DIQMTQSPSSLSASVGDRVTITCRASENIYSNLAWYQQKPGKAPKLLIYAASNLQSGVPSRFSGSGSGTDYTLTISSLQPEDFATYYCQHFWGTPPWTFGQGTKLEIK | 0.00253 | 0.0199 | 0.0137 | 0.48 |  |  |  |  |  |  |  |
| IL-P6-C08 (antibody, V domains shown, Unhumanized murine variable regions; full-length antibody) VH: EVKLVESGGDLVKPGGSLKLSCAASGFTFSSYGMSWVRQTSDKRLEWVATISGGGRYTYYPDSVKGRFTISRDSSKNTLYLQMSSLKSEDTAMYYCVRHYDGYLDYWGLGTTLTVSS VL: DIQMIQSPASLSASVGETVTITCRASENIYSYLAWYQQKQGKSPQLLVYNAKTLAEGVPSRFSGSGSGTQFSLKINSLQPEDFGSYYCQHHYGTPPYTFGGGTKLEIK |  |  | 0.158 |  | 0.0541 |  |  |  |  |  | no binding |
| IL-P7-A06 (antibody, V domains shown, Unhumanized murine variable regions; full-length antibody) VH: QVQLQQSGPEVVRPGVSVKISCKGSGYTFTDYAMHWVKQSHAKSLEWIGIINTYNGNTNYNQKFKGKATMTVDKSSSTAYMEFARLTSEDSAIYYCARSRGPWDRYFDVWGAGTTVTVSS VL: DIVMTQSQKFMSTSVGDRVSVTCKASQNVGTAVAWYQQKPGQSPKLLIYSASNRYTGVPDRFTGSGSGTDFTLTISNMQSEDLADYFCQQYSSYPFTFGSGTKLEIK |  | 0.0086 | 0.072 | 0.278 |  |  |  |  |  |  | no binding |
| IL-P6-D06 (antibody, V domains shown, Unhumanized murine variable regions; full-length antibody) VH: QVQLQQSGPELVRPGVSVKISCKGSGYTFTDYAIHWVKQSHAKSLEWIGVINTYSGNTNYNQKFKGRATMTVDKSSSTAYMELARLTSEDSAIYFCARGVTYGSGYPYWYFDVWGAGTTVTVSS VL: DIVMTQSQKFMSTSVGDRVSVTCKASQNVGTNVAWYQQKPGQSPKALIYSASYRYSGVPDRFTGSGSGTDFTLTISNVQSEDLAEYFCQQYNSYPYTFGGGTKLEIK | 0.00179 |  | 0.103 | 0.245 | 0.119 | 1.13 |  |  |  |  |  |
| IL-P5-B01 (antibody, V domains shown, Unhumanized murine variable regions; full-length antibody) VH: EVQLQESGPSLVKPSQTLSLTCSVTGDSITSGSWNWIRKFPGNKLEYMGYISYSGSIYYNPSLKSRISITRDTSKNQYYLQLNSVTTEDTATYYCARGNPAWFAYWGQGTLVTVSA VL: DIVMTQSQKFMSTSVGDRVSVTCKASQNVGTNVAWYQQKPGQSPKALIYSASYRYSGVPDRFTGSGSGTDFTLTISNVQSEDLAEYFCQQYNSYPYTFGGGTKLEIK |  | 0.0028 | 0.131 | 0.43 | 0.115 |  |  |  |  |  | no binding |
| IL-P7-C05 (antibody, V domains shown, Unhumanized murine variable regions from the murine immune phage library; tested as full-length antibody expressed in ExpiCHO-S cells) VH: EVQLVESGGDLVQPGGSLKLSCAASGFTFSSYGMSWVRQTPDKRLELVATINSNGGTTYYPDSVKGRFTISRDNAKHTLYLQMSSLKSEDTAMYYCTRNEEFRRGLAYWGQGTLVTVSA VL: DIQMIQSPASLSVSVGETVTITCRASENIYSNLAWYQQKQGKSPQLLVYAATNLADGVPSRFSGSGSGTQYSLKINSLQSEDFGSYYCQHFWGTPPWTFGGGTKLEIK | 0.00296 | 0.0144 | 0.0126 | 0.487 | 0.14 | 1.21 |  |  |  |  |  |
